B1: <ErbB3> HER3 clone 29 antibody (antibody, human IgG1, kappa, V domains shown)
VH: DVQLQESGPGLVKPSQSLSLTCSVTGYSITSAYYWNWIRQFPGNKLEWMGYISYGGSNSYAPSLKNRFSITRDTSKNQFFLKLNSVTTEDTATYYCARESDYAYFDYWGQGTTLTVSS
VL: DIQMTQTTSSLSASLGDRVTISCRARQDISNYLNWYQRKPDGTVKLLIYYTSRLHSGVPSRFSGSGSGTDYSLTISNLEQEDIATYFCQQGNTFPWTFGGGTKLEIKR
notes: Bivalent parental antibody (chimeric), with unmodified heavy and light chains; also called parental Her3 clone29
B2: <c-Met> Mab 5D5 (antibody, human IgG1, kappa, V domains shown)
VH: EVQLVESGGGLVQPGGSLRLSCAASGYTFTSYWLHWVRQAPGKGLEWVGMIDPSNSDTRFNPNFKDRFTISADTSKNTAYLQMNSLRAEDTAVYYCATYRSYVTPLDYWGQGTLVTVSS
VL: DIQMTQSPSSLSASVGDRVTITCKSSQSLLYTSSQKNYLAWYQQKPGKAPKLLIYWASTRESGVPSRFSGSGSGTDFTLTISSLQPEDFATYYCQQYYAYPWTFGQGTKVEIKR
notes: Bivalent 5D5 antibody (humanized), with unmodified heavy and light chains; also called bivalent 5D5; c-Met 5D5
B3: trivalent, bispecific <ErbB3-c-Met> antibody Her3/Met_KHSS (bispecific antibody, human IgG1, kappa)
heavy 1: not shown
heavy 2: not shown
light: DIQMTQTTSSLSASLGDRVTISCRARQDISNYLNWYQRKPDGTVKLLIYYTSRLHSGVPSRFSGSGSGTDYSLTISNLEQEDIATYFCQQGNTFPWTFGGGTKLEIKRTVAAPSVFIFPPSDEQLKSGTASVVCLLNNFYPREAKVQWKVDNALQSGNSQESVTEQDSKDSTYSLSSTLTLSKADYEKHKVYACEVTHQGLSSPVTKSFNRGEC
notes: Full length Her3 clone 29 (chimeric) antibody with knobs-into-holes and CH3 disulfide mutations

How the values were obtained:
Her3 (ErbB3) receptor = target: T1, Her3 (ErbB3) receptor (human, UniProt P21860 20-1342); assay: flow cytometry on A431 cells, PE-coupled anti-human Fc secondary antibody
T1 construct: whole, on cells; Endogenous receptor on human cancer cell lines
T1 sequence (P21860 20-1342): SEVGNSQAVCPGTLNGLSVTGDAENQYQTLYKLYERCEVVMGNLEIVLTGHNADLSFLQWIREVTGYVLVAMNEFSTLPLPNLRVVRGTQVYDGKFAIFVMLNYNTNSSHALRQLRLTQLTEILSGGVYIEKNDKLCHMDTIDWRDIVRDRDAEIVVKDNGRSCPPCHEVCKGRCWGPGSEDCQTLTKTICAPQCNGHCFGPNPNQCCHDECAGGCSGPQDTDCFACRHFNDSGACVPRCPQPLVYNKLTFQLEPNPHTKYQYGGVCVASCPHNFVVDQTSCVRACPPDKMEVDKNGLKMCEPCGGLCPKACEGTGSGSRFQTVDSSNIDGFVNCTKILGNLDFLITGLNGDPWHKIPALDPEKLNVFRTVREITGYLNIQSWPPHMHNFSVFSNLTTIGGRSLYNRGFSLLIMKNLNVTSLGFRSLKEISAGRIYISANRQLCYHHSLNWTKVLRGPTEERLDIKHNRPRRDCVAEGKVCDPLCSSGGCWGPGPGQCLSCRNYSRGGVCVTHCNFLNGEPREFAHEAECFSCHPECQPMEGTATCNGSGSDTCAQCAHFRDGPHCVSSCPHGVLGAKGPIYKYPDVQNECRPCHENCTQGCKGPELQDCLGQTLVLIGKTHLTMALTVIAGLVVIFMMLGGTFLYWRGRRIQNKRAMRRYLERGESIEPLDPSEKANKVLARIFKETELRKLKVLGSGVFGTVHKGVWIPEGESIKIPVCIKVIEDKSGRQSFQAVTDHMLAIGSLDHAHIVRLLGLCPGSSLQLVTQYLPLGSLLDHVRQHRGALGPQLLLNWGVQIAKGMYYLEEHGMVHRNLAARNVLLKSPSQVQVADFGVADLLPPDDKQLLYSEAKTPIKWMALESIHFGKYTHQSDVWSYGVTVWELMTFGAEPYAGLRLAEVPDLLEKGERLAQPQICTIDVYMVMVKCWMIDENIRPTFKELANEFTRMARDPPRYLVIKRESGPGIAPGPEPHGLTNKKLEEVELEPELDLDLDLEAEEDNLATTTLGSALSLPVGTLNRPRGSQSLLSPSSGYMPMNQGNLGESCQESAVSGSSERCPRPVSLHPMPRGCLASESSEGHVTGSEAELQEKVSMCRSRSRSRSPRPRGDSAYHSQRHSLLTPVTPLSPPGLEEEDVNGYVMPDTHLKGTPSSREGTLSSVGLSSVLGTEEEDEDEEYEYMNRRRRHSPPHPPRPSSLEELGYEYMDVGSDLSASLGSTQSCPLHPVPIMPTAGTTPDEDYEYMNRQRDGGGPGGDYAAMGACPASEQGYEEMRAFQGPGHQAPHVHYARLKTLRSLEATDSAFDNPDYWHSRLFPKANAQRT
Description: (§1) A431 were detached and counted. 1.5×10e5 cells were seeded per well of a conical 96-well plate. Cells were spun down (1500 rpm, 4° C., 5 min) and incubated for 30 min on ice in 50 μL of a dilution series of the respective bispecific antibody in PBS with 2% FCS (fetal calf serum). Cells were again spun down and washed once with 200 μL PBS containing 2% FCS followed by a second incubation of 30 min with a phycoerythrin-coupled antibody directed against human Fc which was diluted in PBS containing 2% FCS (Jackson Immunoresearch, 109116098). Cells were spun down washed twice with 200 μL PBS containing 2% FCS, resuspended in BD CellFix solution (BD Biosciences) and incubated for at least 10 min on ice. Mean fluorescence intensity (mfi) of the cells was determined by flow cytometry (FACS Canto, BD). Mfi was determined at least in duplicates of two independent stainings Flow cytometry spectra were further processed using the FlowJo software (TreeStar). Half-maximal binding was determined using XLFit 4.0 (IDBS) and the dose response one site model 205.
(§2) The binding properties of the bispecific antibodies to their respective receptor on the cell surface was analyzed on A431 cancer cells in a flow cytometry based assay. Cells were incubated with the mono- or bispecific primary antibodies and binding of these antibodies to their cognate receptors was detected with a secondary antibody coupled to a fluorophore binding specifically to the Fc of the primary antibody. The mean fluorescence intensity of a dilution series of the primary antibodies was plotted against the concentration of the antibody to obtain a sigmoidal binding curve. Cell surface expression of c-Met and Her3 was validated by incubation with the bivalent 5D5 and Her3 clone 29 antibody only. The Her3/c-Met_KHSS antibody readily binds to the cell surface of A431.

c-Met receptor = target: T2, c-Met receptor (human, UniProt P08581 25-1390); assay: as above
T2 construct: whole, on cells; Endogenous receptor on human cells
T2 sequence (P08581 25-1390): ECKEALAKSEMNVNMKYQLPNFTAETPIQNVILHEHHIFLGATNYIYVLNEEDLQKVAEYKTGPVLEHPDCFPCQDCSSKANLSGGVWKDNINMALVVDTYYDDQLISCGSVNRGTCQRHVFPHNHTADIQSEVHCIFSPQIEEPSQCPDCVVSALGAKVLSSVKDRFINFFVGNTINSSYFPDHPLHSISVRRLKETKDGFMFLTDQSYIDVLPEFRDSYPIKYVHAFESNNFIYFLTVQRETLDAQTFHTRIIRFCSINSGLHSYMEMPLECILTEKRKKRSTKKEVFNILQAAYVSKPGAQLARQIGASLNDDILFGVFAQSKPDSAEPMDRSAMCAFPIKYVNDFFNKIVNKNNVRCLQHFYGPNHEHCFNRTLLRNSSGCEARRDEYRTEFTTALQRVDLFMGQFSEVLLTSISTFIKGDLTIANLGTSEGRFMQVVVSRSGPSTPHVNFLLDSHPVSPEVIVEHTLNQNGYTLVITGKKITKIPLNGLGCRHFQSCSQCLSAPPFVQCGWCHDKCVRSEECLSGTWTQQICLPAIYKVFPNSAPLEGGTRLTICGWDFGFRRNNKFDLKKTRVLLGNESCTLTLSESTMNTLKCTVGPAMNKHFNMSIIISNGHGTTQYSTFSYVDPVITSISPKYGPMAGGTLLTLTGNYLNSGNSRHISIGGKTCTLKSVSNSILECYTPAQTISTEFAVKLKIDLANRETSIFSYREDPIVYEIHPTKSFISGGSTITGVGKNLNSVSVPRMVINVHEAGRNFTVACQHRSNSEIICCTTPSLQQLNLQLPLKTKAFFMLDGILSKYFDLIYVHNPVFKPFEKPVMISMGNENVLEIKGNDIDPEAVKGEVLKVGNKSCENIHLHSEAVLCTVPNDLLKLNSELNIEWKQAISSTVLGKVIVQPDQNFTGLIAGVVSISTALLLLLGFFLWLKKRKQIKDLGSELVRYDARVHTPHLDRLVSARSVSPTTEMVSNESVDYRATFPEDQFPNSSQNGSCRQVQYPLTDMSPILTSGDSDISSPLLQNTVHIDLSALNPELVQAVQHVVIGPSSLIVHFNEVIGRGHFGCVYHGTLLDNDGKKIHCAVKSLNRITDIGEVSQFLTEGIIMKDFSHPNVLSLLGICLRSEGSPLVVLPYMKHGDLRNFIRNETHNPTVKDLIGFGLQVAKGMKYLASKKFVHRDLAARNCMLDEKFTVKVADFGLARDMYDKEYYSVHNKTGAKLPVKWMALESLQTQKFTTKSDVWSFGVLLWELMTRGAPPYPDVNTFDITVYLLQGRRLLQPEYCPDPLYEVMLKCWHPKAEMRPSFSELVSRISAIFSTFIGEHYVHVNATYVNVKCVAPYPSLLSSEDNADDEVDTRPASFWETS
Description: as §1, §2

Row | Binder | binding result (Her3 (ErbB3) receptor) | binding result (c-Met receptor)
1 | B1 | binds | 
2 | B2 |  | binds
3 | B3 | binds | 
